We go through one molecule from patent publication EP0638644A1 (F. HOFFMANN-LA ROCHE AG, dated 1995).

Assay [1] deals with T1, recombinant human IL-12 receptor (clone No. 5, SEQ ID NO:2) expressed in COS cells (human).
T1 construct: 662 amino acid precursor; signal peptide cleavage is only predicted (after Gln20, Ala23 or Cys24); On COS cells present as monomers and disulfide-bonded dimers/oligomers; also called rIL-12R; human rIL-12R
Briefly: steady state binding of 125I-IL-12 to COS cells expressing rIL-12R, Scatchard (Figure 4A).

Assay [2] has as its target T2, natural human IL-12 receptor on IL-12R positive human cells (human, UniProt P42701 24-662).
T2 construct: whole, on cells; IL-12 sees up to 3 classes of sites on these cells; also called natural IL-12R
Briefly: steady state 125I-IL-12 binding to K6 cells, Scatchard, site 3 of 3.

For assay [3], the target named is T2, natural human IL-12 receptor on IL-12R …. As to the kind of experiment: steady state 125I-IL-12 binding to PHA-PBMC (5-7 days), Scatchard, site 2 of 3.
The target is the same in assay [4]. Briefly: steady state 125I-IL-12 binding to YT cells, Scatchard, site 2 of 2.
Assay [5] addresses T3, detergent solubilized IL-12R from IL-12R positive human cells (human, UniProt P42701 24-662).
T3 construct: Whole natural receptor protein in detergent extract, not a truncated soluble form; also called soluble IL-12R; approximately 90 kDa protein
As to the kind of experiment: steady state binding of 125I-IL-12 to IL-12R immunoprecipitated by immobilized 2-4E6 from detergent extract of K6 cells, Scatchard.

For assay [6], the target named is T2, natural human IL-12 receptor on IL-12R …. As to the kind of experiment: steady state 125I-IL-12 binding to PHA-PBMC (5-7 days), Scatchard, site 1 of 3.
Assay [7] shares this target. Briefly: steady state 125I-IL-12 binding to Kit-225 cells, Scatchard, site 3 of 3.
The target is the same in assay [8]. As to the kind of experiment: steady state 125I-IL-12 binding to K6 cells, Scatchard, site 2 of 3.
Assay [9] concerns the target T1, recombinant human IL-12 receptor (clone …). As to the kind of experiment: equilibrium binding of labelled human IL-12 to COS cells expressing clone 5, Scatchard, single site (Figure 19A).
For assay [10], the target named is T2, natural human IL-12 receptor on IL-12R …. As to the kind of experiment: steady state 125I-IL-12 binding to K6 cells, Scatchard, site 1 of 3.
The target is the same in assay [11]. Briefly: steady state 125I-IL-12 binding to YT cells, Scatchard, site 1 of 2.
The target is the same in assay [12]. Briefly: steady state 125I-IL-12 binding to PHA-PBMC (5-7 days), Scatchard, site 3 of 3.
Assay [13] shares this target. As to the kind of experiment: steady state 125I-IL-12 binding to Kit-225 cells, Scatchard, site 1 of 3.
The target is the same in assay [14]. Briefly: steady state 125I-IL-12 binding to Kit-225 cells, Scatchard, site 2 of 3.
Assay [15] concerns the target T4, human IL-12 receptor subunit stably expressed on murine CTLL cells (human).
T4 construct: CTLL transfectants express only receptor subunit monomers; also called CTLL transfectant; CTLL cell transfectant
As to the kind of experiment: IL-12 binding to murine CTLL cells stably expressing the IL-12 receptor subunit.

Some results are limits rather than exact numbers.

For orientation: Kd means the equilibrium constant for the complex coming apart.

B1: Recombinant human IL-12 (ligand)
chain 1: RNLPVATPDPGMFPCLHHSQNLLRAVSNMLQKARQTLEFYPCTSEEIDHEDITKDKTSTVEACLPLELTKNESCLNSRETSFITNGSCLASRKTSFMMALCLSSIYEDLKMYQVEFKTMNAKLLMDPKRQIFLDQNMLAVIDELMQALNFNSETVPQKSSLEEPDFYKTKIKLCILLHAFRIRAVTIDRVMSYLNAS
chain 2: IWELKKDVYVVELDWYPDAPGEMVVLTCDTPEEDGITWTLDQSSEVLGSGKTLTIQVKEFGDAGQYTCHKGGEVLSHSLLLLHKKEDGIWSTDILKDQKEPKNKTFLRCEAKNYSGRFTCWWLTTISTDLTFSVKSSRGSSDPQGVTCGAATLSAERVRGDNKEYEYSVECQEDSACPAAEESLPIEVMVDAVHKLKYENYTSSFFIRDIIKPDPPKNLQLKPLKNSRQVEVSWEYPDTWSTPHSYFSLTFCVQVQGKSKREKKDRVFTDKTSATVICRKNASISVRAQDRYYSSSWSEWASVPCS
modifications: ¹²⁵I label (Iodogen method) where used as tracer
notes: 75-KDa heterodimer of p35 and p40; also called HuIL-12; HUIL-12
For the molecule B1, the Kd is 2 to 6 nM in assay [1]; 2.4 nM in assay [2]; 0.084 nM in [3]; 0.109 nM in assay [4]; 0.188 nM in [5]; 0.018 nM in assay [6]. Moreover, the Kd in assay [7] is 2.36 nM; in [8], 0.057 nM; in assay [9], 3.4 nM; in assay [10] it was 0.016 nM; in [11] it was 0.006 nM; in [12] it was 1.8 nM. In addition, the Kd in assay [13] is 0.023 nM; in assay [14], 0.21 nM; in assay [15], at least 50 nM.
